The source of these data is US20080032921A1.

Assay [1] has as its target HLA-DR DRB1*1302 (human). The assay can be described thus: competition assay, purified HLA, inhibition of 125I-labelled reference peptide.
In assay [2] the target is HLA-DR DRB1*0405 (human). The assay is described as above.
Assay [3] has as its target HLA-DR DRB1*0101 (human). The description is as above.
Assay [4] addresses HLA-DR DRB1*0404 (human). The description is as above.
Assay [5] concerns the target HLA-DR DRB1*0301 (human). The assay is described as above.
The target of assay [6] is HLA-DR DRB1*0401 (human). Described as above.
Assay [7] has as its target HLA-DR DRB1*1302 (human). The assay can be described thus: competition with 125I-labelled reference peptide on purified HLA-DR.
In assay [8] the target is HLA-DR DRB4*0101 (human). The assay is described as above.
Assay [9] deals with HLA-DR DRB1*0101 (human). The assay is described as above.
Assay [10] deals with HLA-DR DRB1*1501 (human). The assay is described as above.
In assay [11] the target is HLA-DR DRB1*0301 (human). The description is as above.
Assay [12] addresses HLA-DR DRB1*0401 (human). The description is as above.
Assay [13] has as its target purified HLA-DR DRB1*0301 (human). The assay can be described thus: competition with 125I-labelled reference peptide, purified HLA.
In assay [14] the target is purified HLA-DR DRB1*0101 (human). The description is as above.
Assay [15] addresses purified HLA-DR DRB1*1302 (human). Described as above.
Assay [16] addresses purified HLA-DR DRB1*0404 (human). The description is as above.
In assay [17] the target is purified HLA-DR DRB1*0401 (human). Described as above.
Assay [18] addresses purified HLA-DR DRB1*0405 (human). The assay is described as above.
Assay [19] concerns the target HLA-DR DRB1*1302 (human). The assay can be described thus: competition with 125I-labelled peptide, purified HLA.
In assay [20] the target is HLA-DR DRB1*0405 (human). The description is as above.
The target of assay [21] is HLA-DR DRB1*0101 (human). The assay is described as above.
The target of assay [22] is HLA-DR DRB1*0404 (human). The assay is described as above.
Assay [23] deals with HLA-DR DRB1*0301 (human). Described as above.
Assay [24] concerns the target HLA-DR DRB1*0401 (human). The description is as above.
Assay [25] deals with HLA-DR DRB1*0701 (human). The description is as above.
Assay [26] deals with HLA-DR DRB1*1501 (human). Described as above.
Assay [27] concerns the target HLA-DR DRB1*1101 (human). Described as above.
The target of assay [28] is HLA-DR DRB1*0301 (human). The assay can be described thus: competition vs 125I-labeled peptide, purified HLA.
Assay [29] has as its target purified HLA DRB1*1501 (human). Description: competition with 125I-labelled peptide for purified HLA.
Assay [30] addresses purified HLA DRB1*0101 (human). Described as above.
In assay [31] the target is purified HLA DRB1*1302 (human). The description is as above.
Assay [32] deals with purified HLA DRB1*0401 (human). The description is as above.
Assay [33] deals with purified HLA DRB4*0101 (human). The assay is described as above.
Assay [34] addresses HLA-DR DRB1*0101 (human).
The target in assay [35] is HLA-DR DRB1*1302 (human). The assay can be described thus: competition vs 125I-labeled peptide, purified HLA.
The target in assay [36] is HLA-DR DRB4*0101 (human). The assay can be described thus: competition vs 125I-labeled peptide, purified HLA.
Assay [37] concerns the target HLA-DR DRB1*1501 (human). The assay can be described thus: competition vs 125I-labeled peptide, purified HLA.
The target of assay [38] is HLA-DR DRB1*0401 (human). The assay can be described thus: competition vs 125I-labeled peptide, purified HLA.
Assay [39] addresses HLA-DR DRB1*0101 (human). Description: competition vs 125I-labeled peptide, purified HLA.

Like-named read-outs stand apart in the source and are kept apart here.

One may read the IC50 as the concentration that inhibits the measured activity by half. A high value points to lower potency. QKAMMDQVRESRNPG (modifications not checked) [Flu.NP.238]: the 50% inhibitory concentration (IC50) in [1] is 10500 nM; in assay [2], 13100 nM; in assay [3], 17600 nM; in assay [4], 1830 nM; in assay [5], 450 nM; in [6], 856 nM.

For WAVYSKDNSIRIGSK (modifications not checked) [Flu.NA.77 peptide …], the IC50 stood at 36 nM in assay [7]; 19500 nM in assay [8]; 5400 nM in assay [9]; 642 nM in [10]; 291 nM in assay [11]; 1600 nM in [12].

With VERILKEESDEALKM (modifications not checked) [Flu.NS1.68], the IC50 is 5060 nM in [1]; over 10000 nM in assay [2]; 5190 nM in assay [3]; 572 nM in assay [4]; 679 nM in [6].

As to AMVFSQEDCMIKAVR (modifications not checked) [Flu.PB2.404], the 50% inhibitory concentration (IC50) came out at 718 nM in assay [13]; 11000 nM in [14]; 9200 nM in assay [15]; 336 nM in assay [16]; 3280 nM in [17]; 6780 nM in [18].

LEGFSAESRKLLLVV (modifications not checked) [Flu.PA.658]: the IC50 in [19] was determined as 2270 nM; in assay [20], 3860 nM; in [21] it was 12 nM; in assay [22], 1150 nM; in assay [23] it was 661 nM; in assay [24] it was 861 nM.

Take YIQMCTELKLSDYEG (modifications not checked) [Flu.NP.43]: the IC50 in assay [25] was 5370 nM; in assay [20], 2690 nM; in assay [21], 320 nM; in [22], 1640 nM; in [26] it was 594 nM; in assay [23] it was 368 nM. The IC50 came to 392 nM in assay [24] and 5840 nM in assay [27].

Molecule LLVLMENERTLDFHD (modifications not checked) [Flu.HA.444] returned an IC50 in assay [28] of 64 nM.

Consider FLILGKEDRRYGPAL (modifications not checked) [Flu.PB2.697], for which the IC50 in [13] came out at 565 nM; in assay [14], 8390 nM; in assay [15] it was 118 nM; in assay [17], 1740 nM.

Take LILYDKEEIRRIWRQ (modifications not checked) [Flu.NP.111]: the half-maximal inhibitory concentration (IC50) in assay [1] worked out at 3100 nM; in [2], 7500 nM; in assay [3] it was 7180 nM; in assay [4], 262 nM; in assay [5], 22 nM; in assay [6] it was 12400 nM.

For the molecule VSKMGVDEYSSTERV (modifications not checked) [Flu.PB2.483], the IC50 in assay [13] turned out to be 1020 nM; in assay [15] it was 1850 nM.

As to RVVVSIDRFLRVRDQ (modifications not checked) [Flu.PB2.496], the IC50 in assay [13] stood at 67 nM; in assay [14], 1860 nM; in assay [15] it was 8.1 nM; in [16], 400 nM; in assay [17], 111 nM; in assay [18], 2050 nM.

For the molecule ILSIYSTVASSLALAI (modifications not checked) [Flu.HA.532 peptide …], the IC50 in assay [29] was determined as 20 nM; in assay [30], 11 nM; in [31], 7.6 nM; in [32] it was 91 nM; in assay [33], 824 nM.

On to EECLINDPWVLLNAS (modifications not checked) [Flu.PA.694], for which the IC50 in assay [19] was determined as 246 nM; in [20] it was 15000 nM; in [21], 34 nM; in assay [22] it was 183 nM; in assay [23], 618 nM; in [24], 1220 nM.

In the case of VSLVKSDQICIGYHA (modifications not checked) [Flu.HA.11], the IC50 in assay [34] was over 10000 nM; in [35], 175 nM; in assay [36], 32 nM; in assay [37] it was 14500 nM; in [28], 511 nM; in [38], 513 nM.

CPKYVKSNRLVLATGL (modifications not checked) [Flu.HA.318]: the IC50 in assay [35] is 48 nM; in [36], 287 nM; in assay [39], 2760 nM; in assay [37] it was 230 nM; in assay [28] it was 2920 nM; in [38] it was 868 nM.

Consider IYQILSIYSTVASSLA (modifications not checked) [Flu.HA.529 peptide …], for which the IC50 turned out to be 4.7 nM in assay [29]; 55 nM in assay [30]; 13 nM in [31]; 89 nM in [32]; 18 nM in assay [33].

As to GSYFFGDNAEEYDN (modifications not checked) [Flu.NP.488], the IC50 in assay [1] was over 10000 nM; in [2], 65 nM; in assay [3] it was over 10000 nM; in [4] it was over 10000 nM; in assay [5], 139 nM; in assay [6], 1950 nM.

Turning to SLMLQIGNMISIWVSHS (modifications not checked) [Flu.NA.21 peptide …], the concentration for half-maximal inhibition (IC50) in assay [29] was 34 nM; in assay [30] it was 36 nM; in assay [31], 44 nM; in assay [32], 480 nM; in assay [33] it was 746 nM; in assay [7], 44 nM. The IC50 in [8] came out at 746 nM; in [9] it was 36 nM; in assay [10] it was 34 nM; in [12], 480 nM.
